Results: the RNAGym collection of RNA variant scans (doi:10.7554/elife.80360)

B1: Hammerhead Ribozyme (parent)
chain: ACCGGAUGUGCUUUCCGGUCUGAUGAGUCCGUGAGGACGAAACAG

Variants of: B1
Test: self-cleavage, relative activity (ratio to wild type); higher = more cleavage; co-transcriptional

Variant	self-cleavage
ACCGGAUGUGCUUUCCGGUCUGAUGAGUCCGGGAGGACGGAACAG [U32G A40G]	0.342
ACCGGAUGUGCUUUCCGGUCUGAUGAGUCCGGGAGGACGUAACAG [U32G A40U]	0.39
ACCGGAUGUGCUUUCCGGUCUGAUGAGUCCGGGAGGACGACACAG [U32G A41C]	0.459
ACCGGAUGUGCUUUCCGGUCUGAUGAGUCCGGGAGGACGAGACAG [U32G A41G]	0.299
ACCGGAUGUGCUUUCCGGUCUGAUGAGUCCGGGAGGACGAUACAG [U32G A41U]	0.318
ACCGGAUGUGCUUUCCGGUCUGAUGAGUCCGGGAGGACGAACCAG [U32G A42C]	0.275
ACCGGAUGUGCUUUCCGGUCUGAUGAGUCCGGGAGGACGAAGCAG [U32G A42G]	0.357
ACCGGAUGUGCUUUCCGGUCUGAUGAGUCCGGGAGGACGAAUCAG [U32G A42U]	0.375
ACCGGAUGUGCUUUCCGGUCUGAUGAGUCCGGGAGGACGAAACCG [U32G A44C]	0.424
ACCGGAUGUGCUUUCCGGUCUGAUGAGUCCGGGAGGACGAAACGG [U32G A44G]	0.898
ACCGGAUGUGCUUUCCGGUCUGAUGAGUCCGGGAGGACGAAACUG [U32G A44U]	0.477
ACCGGAUGUGCUUUCCGGUCUGAUGAGUCCGGGAGGAAGAAACAG [U32G C38A]	0.674
ACCGGAUGUGCUUUCCGGUCUGAUGAGUCCGGGAGGAGGAAACAG [U32G C38G]	0.497
ACCGGAUGUGCUUUCCGGUCUGAUGAGUCCGGGAGGAUGAAACAG [U32G C38U]	0.559
ACCGGAUGUGCUUUCCGGUCUGAUGAGUCCGGGAGGACGAAAAAG [U32G C43A]	0.256
ACCGGAUGUGCUUUCCGGUCUGAUGAGUCCGGGAGGACGAAAGAG [U32G C43G]	0.303
ACCGGAUGUGCUUUCCGGUCUGAUGAGUCCGGGAGGACGAAAUAG [U32G C43U]	0.43
ACCGGAUGUGCUUUCCGGUCUGAUGAGUCCGGAAGGACGAAACAG [U32G G33A]	0.843
ACCGGAUGUGCUUUCCGGUCUGAUGAGUCCGGCAGGACGAAACAG [U32G G33C]	0.966
ACCGGAUGUGCUUUCCGGUCUGAUGAGUCCGGUAGGACGAAACAG [U32G G33U]	0.838
ACCGGAUGUGCUUUCCGGUCUGAUGAGUCCGGGAAGACGAAACAG [U32G G35A]	0.473
ACCGGAUGUGCUUUCCGGUCUGAUGAGUCCGGGACGACGAAACAG [U32G G35C]	0.626
ACCGGAUGUGCUUUCCGGUCUGAUGAGUCCGGGAUGACGAAACAG [U32G G35U]	0.603

Variant	self-cleavage
ACCGGAUGUGCUUUCCGGUCUGAUGAGUCCGGGAGAACGAAACAG [U32G G36A]	0.556
ACCGGAUGUGCUUUCCGGUCUGAUGAGUCCGGGAGCACGAAACAG [U32G G36C]	0.464
ACCGGAUGUGCUUUCCGGUCUGAUGAGUCCGGGAGUACGAAACAG [U32G G36U]	0.398
ACCGGAUGUGCUUUCCGGUCUGAUGAGUCCGGGAGGACAAAACAG [U32G G39A]	0.362
ACCGGAUGUGCUUUCCGGUCUGAUGAGUCCGGGAGGACCAAACAG [U32G G39C]	0.497
ACCGGAUGUGCUUUCCGGUCUGAUGAGUCCGGGAGGACUAAACAG [U32G G39U]	0.317
ACCGGAUGUGCUUUCCGGUCUGAUGAGUCCGGGAGGACGAAACAA [U32G G45A]	0.56
ACCGGAUGUGCUUUCCGGUCUGAUGAGUCCGGGAGGACGAAACAC [U32G G45C]	0.712
ACCGGAUGUGCUUUCCGGUCUGAUGAGUCCGGGAGGACGAAACAU [U32G G45U]	0.587
ACCGGAUGUGCUUUCCGGUCUGAUGAGUCCGUAAGGACGAAACAG [G33A]	1.03
ACCGGAUGUGCUUUCCGGUCUGAUGAGUCCGUACGGACGAAACAG [G33A A34C]	1
ACCGGAUGUGCUUUCCGGUCUGAUGAGUCCGUAGGGACGAAACAG [G33A A34G]	0.484
ACCGGAUGUGCUUUCCGGUCUGAUGAGUCCGUAUGGACGAAACAG [G33A A34U]	0.873
ACCGGAUGUGCUUUCCGGUCUGAUGAGUCCGUAAGGCCGAAACAG [G33A A37C]	1.03
ACCGGAUGUGCUUUCCGGUCUGAUGAGUCCGUAAGGGCGAAACAG [G33A A37G]	1.28
ACCGGAUGUGCUUUCCGGUCUGAUGAGUCCGUAAGGUCGAAACAG [G33A A37U]	0.727
ACCGGAUGUGCUUUCCGGUCUGAUGAGUCCGUAAGGACGCAACAG [G33A A40C]	0.792
ACCGGAUGUGCUUUCCGGUCUGAUGAGUCCGUAAGGACGGAACAG [G33A A40G]	0.503
ACCGGAUGUGCUUUCCGGUCUGAUGAGUCCGUAAGGACGUAACAG [G33A A40U]	0.525
ACCGGAUGUGCUUUCCGGUCUGAUGAGUCCGUAAGGACGACACAG [G33A A41C]	0.465
ACCGGAUGUGCUUUCCGGUCUGAUGAGUCCGUAAGGACGAGACAG [G33A A41G]	0.384
ACCGGAUGUGCUUUCCGGUCUGAUGAGUCCGUAAGGACGAUACAG [G33A A41U]	0.428
ACCGGAUGUGCUUUCCGGUCUGAUGAGUCCGUAAGGACGAACCAG [G33A A42C]	0.394

Variant	self-cleavage
ACCGGAUGUGCUUUCCGGUCUGAUGAGUCCGUAAGGACGAAGCAG [G33A A42G]	0.256
ACCGGAUGUGCUUUCCGGUCUGAUGAGUCCGUAAGGACGAAUCAG [G33A A42U]	0.27
ACCGGAUGUGCUUUCCGGUCUGAUGAGUCCGUAAGGACGAAACCG [G33A A44C]	0.673
ACCGGAUGUGCUUUCCGGUCUGAUGAGUCCGUAAGGACGAAACGG [G33A A44G]	1.59
ACCGGAUGUGCUUUCCGGUCUGAUGAGUCCGUAAGGACGAAACUG [G33A A44U]	0.98
ACCGGAUGUGCUUUCCGGUCUGAUGAGUCCGUAAGGAAGAAACAG [G33A C38A]	0.608
ACCGGAUGUGCUUUCCGGUCUGAUGAGUCCGUAAGGAGGAAACAG [G33A C38G]	0.854
ACCGGAUGUGCUUUCCGGUCUGAUGAGUCCGUAAGGAUGAAACAG [G33A C38U]	0.995
ACCGGAUGUGCUUUCCGGUCUGAUGAGUCCGUAAGGACGAAAAAG [G33A C43A]	0.369
ACCGGAUGUGCUUUCCGGUCUGAUGAGUCCGUAAGGACGAAAGAG [G33A C43G]	0.371
ACCGGAUGUGCUUUCCGGUCUGAUGAGUCCGUAAGGACGAAAUAG [G33A C43U]	0.816
ACCGGAUGUGCUUUCCGGUCUGAUGAGUCCGUAAAGACGAAACAG [G33A G35A]	0.825
ACCGGAUGUGCUUUCCGGUCUGAUGAGUCCGUAACGACGAAACAG [G33A G35C]	0.787
ACCGGAUGUGCUUUCCGGUCUGAUGAGUCCGUAAUGACGAAACAG [G33A G35U]	0.866
ACCGGAUGUGCUUUCCGGUCUGAUGAGUCCGUAAGAACGAAACAG [G33A G36A]	0.894
ACCGGAUGUGCUUUCCGGUCUGAUGAGUCCGUAAGCACGAAACAG [G33A G36C]	0.58
ACCGGAUGUGCUUUCCGGUCUGAUGAGUCCGUAAGUACGAAACAG [G33A G36U]	0.613
ACCGGAUGUGCUUUCCGGUCUGAUGAGUCCGUAAGGACAAAACAG [G33A G39A]	0.429
ACCGGAUGUGCUUUCCGGUCUGAUGAGUCCGUAAGGACCAAACAG [G33A G39C]	0.503
ACCGGAUGUGCUUUCCGGUCUGAUGAGUCCGUAAGGACUAAACAG [G33A G39U]	0.344
ACCGGAUGUGCUUUCCGGUCUGAUGAGUCCGUAAGGACGAAACAA [G33A G45A]	0.794
ACCGGAUGUGCUUUCCGGUCUGAUGAGUCCGUAAGGACGAAACAC [G33A G45C]	0.873
ACCGGAUGUGCUUUCCGGUCUGAUGAGUCCGUAAGGACGAAACAU [G33A G45U]	0.955

Variant	self-cleavage
ACCGGAUGUGCUUUCCGGUCUGAUGAGUCCGUCAGGACGAAACAG [G33C]	0.997
ACCGGAUGUGCUUUCCGGUCUGAUGAGUCCGUCCGGACGAAACAG [G33C A34C]	0.801
ACCGGAUGUGCUUUCCGGUCUGAUGAGUCCGUCGGGACGAAACAG [G33C A34G]	1.19
ACCGGAUGUGCUUUCCGGUCUGAUGAGUCCGUCUGGACGAAACAG [G33C A34U]	1.33
ACCGGAUGUGCUUUCCGGUCUGAUGAGUCCGUCAGGCCGAAACAG [G33C A37C]	0.745
ACCGGAUGUGCUUUCCGGUCUGAUGAGUCCGUCAGGGCGAAACAG [G33C A37G]	0.619
ACCGGAUGUGCUUUCCGGUCUGAUGAGUCCGUCAGGUCGAAACAG [G33C A37U]	0.565
ACCGGAUGUGCUUUCCGGUCUGAUGAGUCCGUCAGGACGCAACAG [G33C A40C]	0.566
ACCGGAUGUGCUUUCCGGUCUGAUGAGUCCGUCAGGACGGAACAG [G33C A40G]	0.339
ACCGGAUGUGCUUUCCGGUCUGAUGAGUCCGUCAGGACGUAACAG [G33C A40U]	0.409
ACCGGAUGUGCUUUCCGGUCUGAUGAGUCCGUCAGGACGACACAG [G33C A41C]	0.432
ACCGGAUGUGCUUUCCGGUCUGAUGAGUCCGUCAGGACGAGACAG [G33C A41G]	0.273
ACCGGAUGUGCUUUCCGGUCUGAUGAGUCCGUCAGGACGAUACAG [G33C A41U]	0.459
ACCGGAUGUGCUUUCCGGUCUGAUGAGUCCGUCAGGACGAACCAG [G33C A42C]	0.268
ACCGGAUGUGCUUUCCGGUCUGAUGAGUCCGUCAGGACGAAGCAG [G33C A42G]	0.346
ACCGGAUGUGCUUUCCGGUCUGAUGAGUCCGUCAGGACGAAUCAG [G33C A42U]	0.28
ACCGGAUGUGCUUUCCGGUCUGAUGAGUCCGUCAGGACGAAACCG [G33C A44C]	0.533
ACCGGAUGUGCUUUCCGGUCUGAUGAGUCCGUCAGGACGAAACGG [G33C A44G]	1.13
ACCGGAUGUGCUUUCCGGUCUGAUGAGUCCGUCAGGACGAAACUG [G33C A44U]	0.512
ACCGGAUGUGCUUUCCGGUCUGAUGAGUCCGUCAGGAAGAAACAG [G33C C38A]	0.493
ACCGGAUGUGCUUUCCGGUCUGAUGAGUCCGUCAGGAGGAAACAG [G33C C38G]	0.567
ACCGGAUGUGCUUUCCGGUCUGAUGAGUCCGUCAGGAUGAAACAG [G33C C38U]	1.12
ACCGGAUGUGCUUUCCGGUCUGAUGAGUCCGUCAGGACGAAAAAG [G33C C43A]	0.314

Variant	self-cleavage
ACCGGAUGUGCUUUCCGGUCUGAUGAGUCCGUCAGGACGAAAGAG [G33C C43G]	0.28
ACCGGAUGUGCUUUCCGGUCUGAUGAGUCCGUCAGGACGAAAUAG [G33C C43U]	0.308
ACCGGAUGUGCUUUCCGGUCUGAUGAGUCCGUCAAGACGAAACAG [G33C G35A]	0.701
ACCGGAUGUGCUUUCCGGUCUGAUGAGUCCGUCACGACGAAACAG [G33C G35C]	0.858
ACCGGAUGUGCUUUCCGGUCUGAUGAGUCCGUCAUGACGAAACAG [G33C G35U]	0.795
ACCGGAUGUGCUUUCCGGUCUGAUGAGUCCGUCAGAACGAAACAG [G33C G36A]	0.491
ACCGGAUGUGCUUUCCGGUCUGAUGAGUCCGUCAGCACGAAACAG [G33C G36C]	0.451
ACCGGAUGUGCUUUCCGGUCUGAUGAGUCCGUCAGUACGAAACAG [G33C G36U]	0.338
ACCGGAUGUGCUUUCCGGUCUGAUGAGUCCGUCAGGACAAAACAG [G33C G39A]	0.332
ACCGGAUGUGCUUUCCGGUCUGAUGAGUCCGUCAGGACCAAACAG [G33C G39C]	0.375
ACCGGAUGUGCUUUCCGGUCUGAUGAGUCCGUCAGGACUAAACAG [G33C G39U]	0.364
ACCGGAUGUGCUUUCCGGUCUGAUGAGUCCGUCAGGACGAAACAA [G33C G45A]	0.873
ACCGGAUGUGCUUUCCGGUCUGAUGAGUCCGUCAGGACGAAACAC [G33C G45C]	0.46
ACCGGAUGUGCUUUCCGGUCUGAUGAGUCCGUCAGGACGAAACAU [G33C G45U]	0.874
ACCGGAUGUGCUUUCCGGUCUGAUGAGUCCGUUAGGACGAAACAG [G33U]	0.977
ACCGGAUGUGCUUUCCGGUCUGAUGAGUCCGUUCGGACGAAACAG [G33U A34C]	0.895
ACCGGAUGUGCUUUCCGGUCUGAUGAGUCCGUUGGGACGAAACAG [G33U A34G]	0.752
ACCGGAUGUGCUUUCCGGUCUGAUGAGUCCGUUUGGACGAAACAG [G33U A34U]	0.952
ACCGGAUGUGCUUUCCGGUCUGAUGAGUCCGUUAGGCCGAAACAG [G33U A37C]	1.04
ACCGGAUGUGCUUUCCGGUCUGAUGAGUCCGUUAGGGCGAAACAG [G33U A37G]	1.04
ACCGGAUGUGCUUUCCGGUCUGAUGAGUCCGUUAGGUCGAAACAG [G33U A37U]	0.972
ACCGGAUGUGCUUUCCGGUCUGAUGAGUCCGUUAGGACGCAACAG [G33U A40C]	0.726
